Reference: PMC8924211 (Nature Communications, 2022)
“And” between values parts separate entries of the source, which are not always exact repeats. Equal values may be shown once. Each block holds one molecule with its values, some of them ahead of it.

Experiments:
[1] = tested on: GAL2R over GAL1R; settings: cited from earlier work
Text: In contrast, L^4P contacts with equivalent ECL2 residues with weaker hydrophobicity (L169^ECL2, A170^ECL2, and L172^ECL2) in GAL2R (Fig. 3e, Supplementary Fig. 4b). The structural observation is coincident with our peptide truncation assay.

[2] = molecular target: SNAP-GAL1R (wild type) (human) (UniProt P47211)
[3] = molecular target: SNAP-GAL2R (wild type) (human) (UniProt O43603)
[4] = molecular target: SNAP-GAL1R (wild type) (human) (UniProt P47211); assay: AlphaScreen or HTRF; competition: HEK293 cells with SNAP-GAL1R or SNAP-GAL2R labelled with SNAP-Lumi4-Tb; 50 nM galanin-A2 with increasing concentrations of unlabeled ligand, 1 h at room temperature; Ki by the Cheng-Prusoff equation
[5] = molecular target: SNAP-GAL2R (wild type) (human) (UniProt O43603); assay: as above
[6] = molecular target: SNAP-GAL2R (wild type) (human) (UniProt O43603); remark: listed apart in the source
[7] = molecular target: SNAP-GAL2R (wild type) (human) (UniProt O43603); remark: listed apart in the source
[8] = molecular target: T1, N-terminal-SNAP-tagged GAL2R, wild type (human, UniProt O43603 1-387, Lumi4-Tb on the SNAP tag); assay: AlphaScreen or HTRF; competition binding: HEK293 cells transfected with WT SNAP-tagged receptor and labelled with SNAP-Lumi4-Tb, incubated with 50 nM galanin-A2 and increasing concentrations of the unlabeled ligand, 1 h at room temperature; Ki from IC50 by the Cheng-Prusoff equation; settings: one partner purified
T1 construct: also called SNAP-GAL2R; GAL2R WT; source: HEK293, transfected, on cells; not shown: SNAP tag, N-terminal, kept
T1 sequence (looked up): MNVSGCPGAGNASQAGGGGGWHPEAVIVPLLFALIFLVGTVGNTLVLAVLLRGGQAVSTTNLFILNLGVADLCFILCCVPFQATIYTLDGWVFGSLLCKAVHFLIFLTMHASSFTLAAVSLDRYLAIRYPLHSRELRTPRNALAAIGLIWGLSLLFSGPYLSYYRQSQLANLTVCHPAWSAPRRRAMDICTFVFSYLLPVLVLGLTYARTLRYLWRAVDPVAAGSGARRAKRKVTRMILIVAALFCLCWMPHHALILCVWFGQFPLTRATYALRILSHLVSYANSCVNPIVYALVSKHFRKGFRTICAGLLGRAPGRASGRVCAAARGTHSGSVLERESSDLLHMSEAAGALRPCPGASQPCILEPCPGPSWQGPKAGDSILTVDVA

[9] = molecular target: T2, N-terminal-SNAP-tagged GAL1R, wild type (human, UniProt P47211 1-349, Lumi4-Tb on the SNAP tag); assay: as above; settings: one partner purified
T2 construct: also called SNAP-GAL1R; GAL1R WT; source: HEK293, transfected, on cells; not shown: SNAP tag, N-terminal, kept
T2 sequence (looked up): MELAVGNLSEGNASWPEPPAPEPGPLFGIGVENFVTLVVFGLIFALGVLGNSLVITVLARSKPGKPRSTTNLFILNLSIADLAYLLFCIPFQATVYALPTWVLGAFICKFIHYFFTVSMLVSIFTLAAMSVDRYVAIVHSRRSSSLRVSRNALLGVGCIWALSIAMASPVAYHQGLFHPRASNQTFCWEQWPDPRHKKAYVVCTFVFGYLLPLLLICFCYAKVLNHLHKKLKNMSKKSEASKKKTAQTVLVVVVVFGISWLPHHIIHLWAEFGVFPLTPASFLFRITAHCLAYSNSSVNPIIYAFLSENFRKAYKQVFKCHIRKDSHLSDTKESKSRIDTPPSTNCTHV

Molecule: ARM1896: galanin segment 2-11 (WTLNSAGYLL; Galanin; UniProt P22466 34-43, looked up, fragment)
selectivity for GAL1R [1]: low selectivity

calcium assay EC50 (peptide on WT receptor; HEK293/Gα16 cells) [2]: 3160 nM and 3440 nM and 3340 nM | calcium assay EC50 (peptide on WT receptor; HEK293/Gα16 cells) [3]: 50.1 nM and 12.3 nM | Ki [4]: > 10000 nM | Ki [5]: 80.1 nM and 42.6 nM and 27 nM
Molecule: G1-truncated galanin (2-16) (peptide)

Molecule: GALP (1–60): galanin-related peptide, galanin homologue; amino acids 9–21 identical to first 13 amino acids of galanin (APAHRGRGGWTLNSAGYLLGPVLHLPQMGDQDGKRETALEILDLWKAIDGLPYSHPPQPS; Galanin-like peptide; UniProt Q9UBC7 25-84, looked up)
affinity for GAL2R versus GAL1R [1]: higher affinity for GAL2R over GAL1R

calcium assay EC50 (peptide on WT receptor; HEK293/Gα16 cells) [2]: 324 nM and 328 nM and 268 nM | calcium assay EC50 (peptide on WT receptor; HEK293/Gα16 cells) [3]: 12.8 nM and 14.6 nM and 69 nM | Ki [4]: 343 nM and 409 nM and 314 nM | Ki [5]: 41.4 nM and 11.1 nM and 17.8 nM
Molecule: galanin (1-13) (peptide)

calcium assay EC50 (peptide on WT receptor; HEK293/Gα16 cells) [3]: 23.5 nM and 12.5 nM and 12.6 nM | Ki [5]: 20.1 nM and 22.6 nM and 15.6 nM
Molecule: galanin (1-16) (peptide)

calcium assay EC50 (peptide on WT receptor; HEK293/Gα16 cells) [2]: > 10000 nM | calcium assay EC50 (peptide on WT receptor; HEK293/Gα16 cells) [3]: > 10000 nM | Ki [4]: 2880 nM and 2850 nM and 1690 nM | Ki [5]: > 100000 nM
Molecule: galanin (1-16, Y9A) (peptide)

Molecule: galanin (full length, unlabeled) (peptide)
calcium assay EC50 (peptide on WT receptor; HEK293/Gα16 cells) [3]: 8.27 nM and 11.6 nM | calcium assay EC50 (galanin; HEK293/Gα16 cells) [6]: 35.3 nM and 27.2 nM and 64.9 nM

Molecule: spexin (mature, 14 amino acids) (peptide)
calcium assay EC50 (spexin) [7]: 327 nM and 178 nM and 81.4 nM

Molecule: GWTLNSAGYLLGP (numbers count on: the mature protein) [Gal (1-13)]
Ki [8]: 23.5 nM | Ki [9]: 356 nM

Molecule: WTLNSAGYLLGPHAV (numbers count on: the mature protein) [Gal (2-16)]
Ki [8]: 49.9 nM | Ki [9]: > 10000 nM

Molecule: GWTLNSAGALLGPHAV (numbers count on: the mature protein) [Gal (1-16, Y9A)]
Ki [8]: > 100000 nM | Ki [9]: 2480 nM
